Assay [1] addresses T1, wild-type human Macrophage Migration Inhibitory Factor (human), P14174.
T1 chain: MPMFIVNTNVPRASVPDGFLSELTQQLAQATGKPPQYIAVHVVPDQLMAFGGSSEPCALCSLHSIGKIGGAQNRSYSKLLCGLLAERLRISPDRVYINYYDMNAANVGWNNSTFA
Description: AUC; sedimentation velocity, 50,000 rpm, 20°C, PBS 1X pH 7.4, protein 5-50 µM (15 µM in Figure 3); c(s) analysis with SEDFIT; oligomeric state of the protein with itself. To be noted: remark: other sources report otherwise.

Assay [2] addresses T1, wild-type human Macrophage Migration …. Description: static light scattering (multi-angle); purified MIF 20-30 µM in PBS 1X, room temperature, DAWN HELEOS II with UV and refractive index detectors; oligomeric state of the protein with itself. To be noted: remark: other sources report otherwise.

B1: wild-type human Macrophage Migration Inhibitory Factor, P14174 1-115 (natural protein)
chain: T1 chain
Take B1: the stoichiometry N in assay [1] and in assay [2] was 3 each time.

These data come from paper PMC3448610.
